Changes are numbered by the printed parent chain.
B1: Anti-ZIKV #4 (Clone 289-3) (antibody, V domains shown)
VH: QEELEESGGDLVKPGASLTLTCKASGFSFSSGAYICWVRQAPGKGPEWIACIYTGDGRTYYANWAKRRFTISSSSSTTVALEMPSLTDADTATYFCARAIAVGAGYGVGNYFTLWGPGTLVTVSS
VL: DIVMTQTPSSVSAAVGGTVTINCHASENIYGYLSWYQQKPGQPPKLLIYKASTLASGVPSRFKGSGAGTQFTLTITALECADAATYYCQSYYTSSSNADGSENAFGGGTEVVVEG
B2: Anti-ZIKV #2 (Clone 242-3) (antibody, V domains shown)
VH: QAQLEESGGDLVKPEGSLTLTCTASGFSFTDRHYMCWIRQAPGKGLEWIACVYPGSSGSTYYASWARGRFTISKTSSTTVTLRMTSLTAADTATYFCARSSYPDSSGYSYGMDLWGPGTLVTVSS
VL: DIVMTQTPASVEAAVGGTVTIKCQASQNINSNLAWYQQKPGQRPKFLMYLTSKLASGVPSRFRGSGSGTQFTLTISDLECADAATYYCQTYYDISNYGYAFGGGTEVVVKG
B3: Anti-ZIKV #3 (Clone 270-12) (antibody, V domains shown)
VH: B2 VH with I38V
VL: B2 VL with N28D
B4: Anti-ZIKV #7 (IgG2a kappa, Clone ZKA-64) (antibody, V domains shown)
VH: QVQLVQSGAEVKKPGASVKVSCKASGYTFTGYHIDWVRQARGQGLEWMGRINPNSGGTNYAQKFQGRVTMTRDTSISTAYMQLSRLRSDDSAVYYCARMSSSIWGFDHWGQGTLVTVSS
VL: EIVMTQSPATLSVSPGERATLSCRASQSVLINLAWYQQKPGQAPRLLIYGASSRATGIPARFSGSGSGTEFTLTISSLQSEDFAVYYCQQYNDWPPITFGQGTRLEIK
B5: Anti-ZIKV #6 (IgG2c kappa, Clone ZV-67) (antibody, V domains shown)
VH: QAQLQQSGTGLARPGASVKLSCKASGYTFTSYGISWVTQRAGQGLEWIGVIYPRSGNTYYNEKFRGKATLTADKSSSSAYMELRGLTAEDSAVYFCARENYGSVYWGQGTTLTVSS
VL: DIVMTQSQKFMSTSVGDRVSITCKASQNVGTAVAWYQQKPGQSPKLLIYSASNRYTGVPDRFTGSGSGTDFTLTISNMQSEDLADYFCQQFSSYPYTFGGGTKLEIK
B6: Anti-ZIKV #5 (Clone 306-2) (antibody, V domains shown)
VH: QSLEESGGDLVKPGASLTLTCTASGFDFSDRYYMCWVRQAPGKGLEWIGCIYVGSGDTYYASWAKGRFTISRTSSTTVTLQMTRLTAADTATYFCARHPGTYFTLWGPGTLVTVSS
VL: DVVMTQTPSSVSAAVGGTVTINCQASQNIVNNLAWYQQRPGQPPKLLIYDTSTLASGVPSRFKGSGSGTEFTLTISDLECADAATYYCQTYYYYNKIINGFGGGTEVVVKG
B7: Anti-ZIKV #9 (Clone 181-4) (antibody)
heavy: QAQLEESGGDLVKPEGSLTLTCTASGFSFTDRHYMCWVRQAPGKGLEWIACVYPGSSGSTYYASWARGRFTISKTSSTTVTLRMTSLTAADTATYFCARSSYPDSSGYSYGMDLWGPGTLVTVSSGQPKAPSVFPLAPCCGDTPSSTVTLGCLVKGYLPEPVTVTWNSGTLTNGVRTFPSVRQSSGLYSLSSVVSVTSSSQPVTCNVAHPATNTKVDKTVAPSTCSKPTCPPPELLGGPSVFIFPPKPKDTLMISRTPEVTCVVVDVSQDDPEVQFTWYINNEQVRTARPPLREQQFNSTIRVVSTLPIAHQDWLRGKEFKCKVHNKALPAPIEKTISKARGQPLEPKVYTMGPPREELSSRSVSLTCMINGFYPSDISVEWEKNGKAEDNYKTTPAVLDSDGSYFLYSKLSVPTSEWQRGDVFTCSVMHEALHNHYTQKSISRSPGK
light: DIVMTQTPASVEAAVGGTVTIKCQASQNINSNLAWYQQKPGQRPKFLMYLTSKLASGVPSRFRGSGSGTQFTLTISDLECADAATYYCQTYYDISNYGYAFGGGTEVVVKGDPVAPTVLIFPPAADQVATGTVTIVCVANKYFPDVTVTWEVDGTTQTTGIENSKTPQNSADCTYNLSSTLTLTSTQYNSHKEYTCKVTQGTTSVVQSFNRGDC
B8: Anti-ZIKV #10 (Clone 329-2) (antibody)
heavy: B7 heavy
light: B7 light
B9: Anti-ZIKV #8 (Clone 260-2) (antibody)
heavy: B7 heavy with S124P
light: B7 light
B10: Anti-ZIKV #11 (Clone 11-3) (antibody, V domains shown)
VH: QEQLVESGGGLVQPEGSLTITCTGSGFSFSSRFYMCWVRQAPGKGLEWIACIYGGSSGSTYYASWAKGRFTISKTSSTTVTLQISSLTAADTATYFCARGGSTAAAGFNLWGPGTLLTVSS
VL: DVVMTQTPASVSATVGGTVTIKCQASEDIYNLLAWYQQKPGQPPKLLIYYASTLASGVPSRFKGSGSGTEFTLTISDLECADAATYYCQCNDYGGTYVPNAFGGGTEVVVKG

These binders were tested against rZIKV-EDIII-1 (recombinant 6xHis-SUMO-tagged ZIKV EDIII) (Zika virus strain H/PF/2013, UniProt A0A024B7W1 589-697) (assay: Bio-layer interferometry (Octet)).

Binder | binding result
B1 | binds

Each binder was assayed against T1, DENV1 VLP (strain Puerto Rico/US/BID-V853/1998) (Dengue virus serotype 1 strain Puerto …) (assay: microsphere immunoassay, DENV1 VLP-coupled microspheres).
T1 construct: also called dengue-1 virus like particle

Binder | binding result
B2 | no binding (tested: 0.001 to 20 µg/mL)
B3 | no binding (tested: 0.001 to 20 µg/mL)
B4 | no binding (tested: 0.001 to 20 µg/mL)
B1 | no binding (tested: 0.001 to 20 µg/mL)
B5 | no binding (tested: 0.001 to 20 µg/mL)
B6 | no binding (tested: 0.001 to 20 µg/mL)

What follows are binders tested against T2, DENV2 VLP (strain Thailand/16681/84) (Dengue virus serotype 2 strain …) (assay: microsphere immunoassay, DENV2 VLP-coupled microspheres).
T2 construct: also called dengue-2 virus like particle

Binder | binding result
B2 | no binding (tested: 0.001 to 20 µg/mL)
B3 | no binding (tested: 0.001 to 20 µg/mL)
B4 | no binding (tested: 0.001 to 20 µg/mL)
B1 | no binding (tested: 0.001 to 20 µg/mL)
B5 | no binding (tested: 0.001 to 20 µg/mL)
B6 | no binding (tested: 0.001 to 20 µg/mL)

Each binder was assayed against T3, DENV3 VLP (strain Sri Lanka D3/H/IMTSSA-SRI/2000/1266) (Dengue virus serotype 3 strain Sri …) (assay: microsphere immunoassay, DENV3 VLP-coupled microspheres).
T3 construct: also called dengue-3 virus like particle

Binder | binding result
B2 | no binding (tested: 0.001 to 20 µg/mL)
B3 | no binding (tested: 0.001 to 20 µg/mL)
B4 | no binding (tested: 0.001 to 20 µg/mL)
B1 | no binding (tested: 0.001 to 20 µg/mL)
B5 | no binding (tested: 0.001 to 20 µg/mL)
B6 | no binding (tested: 0.001 to 20 µg/mL)

Each binder was assayed against T4, DENV4 VLP (strain Dominica/814669/1981) (Dengue virus serotype 4 strain …, UniProt P09866 114-732) (assay: microsphere immunoassay, DENV4 VLP-coupled microspheres).
T4 construct: also called dengue-4 virus like particle

Binder | binding result
B2 | no binding (tested: 0.001 to 20 µg/mL)
B3 | no binding (tested: 0.001 to 20 µg/mL)
B4 | no binding (tested: 0.001 to 20 µg/mL)
B1 | no binding (tested: 0.001 to 20 µg/mL)
B5 | no binding (tested: 0.001 to 20 µg/mL)
B6 | no binding (tested: 0.001 to 20 µg/mL)

What follows are binders tested against T1, DENV1 VLP (strain Puerto …) (assay: microsphere immunoassay, DENV1 VLP-coupled microspheres, 120 min incubation).

Binder | binding result
B7 | no binding (tested: 0.001 to 20 µg/mL)
B8 | no binding (tested: 0.001 to 20 µg/mL)
B9 | no binding (tested: 0.001 to 20 µg/mL)
B10 | no binding (tested: 0.001 to 20 µg/mL)

Each binder was assayed against T2, DENV2 VLP (strain Thailand/16681/84) (assay: microsphere immunoassay, DENV2 VLP-coupled microspheres, 120 min incubation).

Binder | binding result
B7 | no binding (tested: 0.001 to 20 µg/mL)
B8 | no binding (tested: 0.001 to 20 µg/mL)
B9 | no binding (tested: 0.001 to 20 µg/mL)
B10 | no binding (tested: 0.001 to 20 µg/mL)

Each binder was assayed against T3, DENV3 VLP (strain Sri Lanka …) (assay: microsphere immunoassay, DENV3 VLP-coupled microspheres, 120 min incubation).

Binder | binding result
B7 | no binding (tested: 0.001 to 20 µg/mL)
B8 | no binding (tested: 0.001 to 20 µg/mL)
B9 | no binding (tested: 0.001 to 20 µg/mL)
B10 | no binding (tested: 0.001 to 20 µg/mL)

These binders were tested against T4, DENV4 VLP (strain Dominica/814669/1981) (assay: microsphere immunoassay, DENV4 VLP-coupled microspheres, 120 min incubation).

Binder | binding result
B7 | no binding (tested: 0.001 to 20 µg/mL)
B8 | no binding (tested: 0.001 to 20 µg/mL)
B9 | no binding (tested: 0.001 to 20 µg/mL)
B10 | no binding (tested: 0.001 to 20 µg/mL)

These binders were tested against T5, ZIKV VLP (zika virus like particle, isolate Z1106033) (Zika virus isolate Z1106033 (Suriname, …, UniProt A0A024B7W1 123-794)) (assay: not given).
T5 construct: also called zika VLP; ZIKV VLPs

Binder | EC50
B2 | 0.14 µg/mL
B3 | 0.181 µg/mL
B4 | 1.18 µg/mL
B5 | 0.677 µg/mL
B6 | 0.256 µg/mL

Molecular target: T5, ZIKV VLP (zika virus like particle, …)
Assay: not given
Remark: another data set of the same source

Binder | EC50
B2 | 0.044 µg/mL
B3 | 0.061 µg/mL
B4 | 0.423 µg/mL
B5 | 0.134 µg/mL
B6 | 0.066 µg/mL

Molecular target: T5, ZIKV VLP (zika virus like particle, …)
Assay: not given
Remark: another data set of the same source

Binder | EC25 | EC50
B7 | 0.0059 µg/mL | 0.0156 µg/mL
B8 | 0.0043 µg/mL | 0.0145 µg/mL
B2 | 0.0024 µg/mL | 0.008 µg/mL
B9 | 0.0075 µg/mL | 0.0252 µg/mL
B3 | 0.0045 µg/mL | 0.0144 µg/mL
B4 | 0.0296 µg/mL | 0.101 µg/mL
B5 | 0.0081 µg/mL | 0.0273 µg/mL
B10 | 0.0032 µg/mL | 0.0105 µg/mL
B6 | 0.0047 µg/mL | 0.0158 µg/mL

Source: US20230324404A1 (Takeda / Millennium, published 2023)
